Here are results for ten molecules from PMC8583167 (Oncoimmunology, 2021).

The target of assay [1] is T1, mCS1-His (Mus musculus, strain , UniProt Q8BHK6).
Assay [2] has as its target T1, mCS1-His. The assay can be described thus: SPR.

T1 sequence (Q8BHK6 23-333): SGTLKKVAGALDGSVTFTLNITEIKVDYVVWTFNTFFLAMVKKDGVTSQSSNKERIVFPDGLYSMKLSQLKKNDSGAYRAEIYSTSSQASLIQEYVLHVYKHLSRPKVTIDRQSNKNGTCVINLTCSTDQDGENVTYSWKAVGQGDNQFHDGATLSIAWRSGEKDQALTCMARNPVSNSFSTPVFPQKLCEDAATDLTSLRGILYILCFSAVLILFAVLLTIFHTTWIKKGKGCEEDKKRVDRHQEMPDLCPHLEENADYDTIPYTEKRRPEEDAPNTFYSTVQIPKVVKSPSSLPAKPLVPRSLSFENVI

B1: sdAb9 (VHH)
VHH: QVQLQESGGGLVQPGGSLRLSCAASGSIFSILSMGWYRQAPGKQRELVASITNGGSTNYADSVKGRFTIFRDNAKNTVDLQMNSLKPEDTAVYYCNARPPRADLWGQGTQVTVSS
Take B1: the binding result in the assay with mCS1-His [1] is recorded as “binds”.

B2: sdAb10 (VHH)
VHH: QVQLQESGGGLVQPGGSLRLSCAASGSIFSIYAMGWYRQAPGKQRELVAGITSGGSTHYADSVKGRFTISRDNAKNSVYLQMNSLKPEDTAVYYCNSDLDPPSGTYYPALWSWGQGTQVTVSS
With B2, the binding result in the assay with mCS1-His [1] is recorded as “binds”.

B3: sdAb3 (VHH)
VHH: QVQLQESGGGLVQPGGSLRLSCAASGSIFSIYAMDWYRQAPGKQRELVARITSDGSTNYADSVKGRFTISRDNAKNAVYLQMNSLKPEDTAVYYCVAEQSLGEHTLRDWGQGTQVTVSS
Consider B3, for which the binding result in the assay with mCS1-His [1] is on record as “binds”.

B4: sdAb4 (VHH)
VHH: QVQLQESGGGFVQPGGSLRLSCAASGSIFSVYAMGWYRQAPGKQRELVAAITRGGSANYADSVKGRFTISRDNAKNAVYLQMNSLKPEDTAVYYCVAEQSLGEHTLRDWGQGTQVTVSS
On to B4, for which, in the assay with mCS1-His [1], the binding result was “binds”.

B5: sdAb6 (VHH)
VHH: QVQLQESGGGLVQPGGSLRLSCAASGSIFSILAMGWYRQAPGKQRELVASVTNGGSTNYADSVKGRFTISRDNAKNTVYLQMNSLKPEDTAVYYCNVRPYSDYDSWGHGTQVTVSS
With B5, in the assay with mCS1-His [1], the binding result is given as “binds”.

B6: sdAb8 (VHH)
VHH: QVQLQESGGGLVQPGGSLRLSCAASGSIFSILAMGWYRQAPGKQRELVASVTNGGSTNYADFVKGRFTISRDNVKNTVYLQMNSLKPEDTAVYYCNVRPYSDYDYWGQGTQVTVSS
Regarding B6, the binding result in the assay with mCS1-His [1] is “binds”.

B7: sdAb7 (VHH)
VHH: QVQLQESGGGLVQPGGSLRLSCAASGSIFSILAMGWYRQAPGKQRELVASVTNGGSTNYADSVKGRFTISRDNAKNTVYLQMNSLKPEDTAVYYCNVRPYSDYDSWGQGTQVTVSS
For B7, the binding result with mCS1-His [1] is given as “binds”.

B8: anti-mCS1 sdAb1, untagged (VHH)
VHH: QVQLQESGGGLVQPGGSLRLSCAASGFTFSSTAMSWARQAPGKGLEWVSSIYSDGSTSYADSMKGRSTISRDNAKNTVYLQMNSLKPEDTAVYYCAIGDTGWGRVGQGTQVTVSS
In the case of B8, the Kd (commonly a measure of binding affinity in units of concentration) in the assay with mCS1-His [2] stood at 25 nM.

B9: sdAb5 (VHH)
VHH: QVQLQESGGGLVQPGGSLRLSCAVSRSIFSFYAMGWYRQAPGKERELVARIISGGSTNYADSVKGRFTIARDNAKNTVYLQMNSLKPEDTAVYYCVAEQFLNDFTLRDWGQGTQVTVSS
As to B9, the binding result in the assay with mCS1-His [1] is recorded as “binds”.

B10: sdAb2 (VHH)
VHH: QVQLQESGGGLVQPGGSLKLSCAASGSIASIYAMGWYRQAPGKQRELVATISSDGSTNYADSVKGRFTISRNNTDNTVCLQMNSLKPEDTALYTCITEQFLGDHTLRDWGQGTQVTVSS
In the case of B10, in the assay with mCS1-His [1], the binding result is “binds”.
